Assay results reported in US20240294623A1 (SCHOLAR ROCK, published 2024).

Key:
[1] = target: T1, hLRRC33-proTGFβ1 (human, UniProt Q86YC3 19-650; P01137 30-390, limits assumed); assay: SPR (Biacore), Fab
T1 construct: LLC as m1; Same id used for the cell-surface complex in reporter assays; also called human LRRC33-proTGFβ1 complex; LRRC33-ProTGFb1

[2] = target: T2, mLRRC33-proTGFβ1 (murine, UniProt Q8BMT4 20-651); assay: SPR (Biacore), Fab
[3] = target: endogenous LTBP-proTGFβ1 of human LN229 cells (human, UniProt P01137 30-390); assay: cell-based or functional assay
[4] = target: T3, hGARP-proTGFβ1 (human, UniProt Q14392 18-627; P01137 30-390, limits assumed); assay: SPR (Biacore), Fab; affinity relative to Ref
T3 construct: LLC as m1; Same id used for the cell-surface complex in reporter assays; also called human GARP-proTGFβ1 complex; GARP-ProTGFb1
Description: Surface plasmon resonance (SPR) was used to measure binding kinetics using a BIACORE® system. […] Experiments were carried out with eight types of LLCs, namely, hLTBP1-proTGFβ1, mLTBP1-proTGFβ1, hLTBP3-proTGFβ1, mLTBP3-proTGFβ1, hGARP-proTGFβ1, mGARP-proTGFβ1, hLRRC33-proTGFβ1 and mLRRC33-proTGFβ1.
In vitro binding kinetics (on/off rates) were measured in Biacore-based assays and affinities were determined against all four known LLCs using both human and murine counterparts for each. Based on the association rate and dissociation rate, KD was calculated for each. In addition, relative affinities, as compared to the reference antibody as a benchmark, were calculated and expressed as “fold difference” relative to the reference antibody.
(§1) A BIACORE® system was employed to determine the monovalent binding affinity and the kinetic parameters for antigen binding of test antibodies. The binding kinetics were evaluated by surface plasmon resonance using Biacore 8K (GE Healthcare). A Biotin CAP sensor chip was used to capture the biotinylated antigens. […] Multi-cycle kinetics was employed where each analyte concentration was injected in a separate cycle and the sensor chip surface was regenerated after each cycle. All the assays were carried out in freshly prepared 1×HBS-EP+buffer (10 mM HEPES, 150 mM NaCl, 3 mM EDTA, 0.05% Tween20, pH 7.4). Data for all the analyte concentrations for each interaction were fit globally to a 1:1 binding model to obtain the kinetic parameters. The Sensorgram for 0 nM analyte concentration was used as reference.

[5] = target: T4, mGARP-proTGFβ1 (mouse); assay: SPR (Biacore), Fab; affinity relative to Ref
T4 construct: Murine LLC; also called murine GARP-proTGFβ1 complex

[6] = target: T1, hLRRC33-proTGFβ1; assay: SPR (Biacore), Fab; affinity relative to Ref
[7] = target: T2, mLRRC33-proTGFβ1; assay: SPR (Biacore), Fab; affinity relative to Ref
[8] = target: T5, hLTBP1-proTGFβ1 (human, UniProt Q14766 347-1721; P01137 30-390, limits assumed); assay: BLI (Octet), Fab in solution, biotinylated antigen immobilised
T5 construct: Large latent complex (LLC): proTGFβ1 dimer disulfide-linked to one presenting molecule; recombinant, purified, biotinylated in BLI/SPR; The same id is used for the complex made by transfected cells in the reporter assays; also called human LTBP1-proTGFβ1 complex; LTBP1-ProTGFb1
Description: (§2) The table below exemplifies binding kinetics of the listed antibodies (e.g., Fabs) obtained by OCTET®-based binding assays. The experiments were conducted with immobilized, biotinylated antigen and Fab fragments (e.g., test antibodies) in solution.

[9] = target: T6, hLTBP3-proTGFβ1 (human, UniProt Q9NS15 44-1303; P01137 30-390, limits assumed); assay: as above
T6 construct: LLC as m1; Same id used for the cell-made complex in reporter assays; also called human LTBP3-proTGFβ1 complex; LTBP3-ProTGFb1
Description: as §2

[10] = target: T3, hGARP-proTGFβ1; assay: as above
Description: as §2

[11] = target: T5, hLTBP1-proTGFβ1; assay: SPR (Biacore 8K), biotinylated antigen captured, Fab as analyte
Description: as §1
(§3) The binding kinetics of antibody interactions with each of the antigen complexes, human LTBP1-ProTGFb1, human LTBP3-ProTGFb1, human GARP-ProTGFb1, and human LRRC33-ProTGFb1, were evaluated by surface plasmon resonance. Binding kinetics was evaluated by surface plasmon resonance using a BIACORE® 8K (GE) instrument. Biotinylated antigens were captured on a Biotin CAP chip and the Fab fragments of the antibodies were used as analytes. Sensorgrams for Fab binding at variable concentrations (0.6-10 nM) were globally fit to obtain the kinetic parameters.
(§4) Binding kinetics for the Fabs were evaluated against each of the four human antigens, LTBP1-ProTGFb1, LTBP3-ProTGFb1, GARP-ProTGFb1, and LRRC33-ProTGFb1. […] These experiments were repeated.

[12] = target: T6, hLTBP3-proTGFβ1; assay: as above
Description: as §1, §3, §4

[13] = target: T3, hGARP-proTGFβ1; assay: as above
Description: as §1, §3, §4

[14] = target: T1, hLRRC33-proTGFβ1; assay: as above
Description: as §1, §3, §4

T2 sequence (Q8BMT4 20-651): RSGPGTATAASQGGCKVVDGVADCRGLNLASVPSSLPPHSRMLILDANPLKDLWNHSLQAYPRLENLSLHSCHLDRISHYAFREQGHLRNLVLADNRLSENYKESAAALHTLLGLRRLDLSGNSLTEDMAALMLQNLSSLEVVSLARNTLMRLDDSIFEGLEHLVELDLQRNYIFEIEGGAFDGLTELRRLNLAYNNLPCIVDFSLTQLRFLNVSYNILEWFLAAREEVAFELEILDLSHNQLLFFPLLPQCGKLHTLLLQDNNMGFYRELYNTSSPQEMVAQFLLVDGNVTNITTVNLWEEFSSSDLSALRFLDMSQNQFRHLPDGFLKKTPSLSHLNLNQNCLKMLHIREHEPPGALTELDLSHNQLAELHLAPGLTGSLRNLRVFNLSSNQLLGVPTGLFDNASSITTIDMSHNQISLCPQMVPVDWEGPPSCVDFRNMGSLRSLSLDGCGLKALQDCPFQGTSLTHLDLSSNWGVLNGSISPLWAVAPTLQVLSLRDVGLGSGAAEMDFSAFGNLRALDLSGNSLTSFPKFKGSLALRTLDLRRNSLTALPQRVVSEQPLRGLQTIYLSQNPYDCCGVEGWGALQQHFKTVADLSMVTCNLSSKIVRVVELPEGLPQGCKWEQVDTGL
T1 sequence (Q86YC3 19-650 limits assumed, chain 1 of 2): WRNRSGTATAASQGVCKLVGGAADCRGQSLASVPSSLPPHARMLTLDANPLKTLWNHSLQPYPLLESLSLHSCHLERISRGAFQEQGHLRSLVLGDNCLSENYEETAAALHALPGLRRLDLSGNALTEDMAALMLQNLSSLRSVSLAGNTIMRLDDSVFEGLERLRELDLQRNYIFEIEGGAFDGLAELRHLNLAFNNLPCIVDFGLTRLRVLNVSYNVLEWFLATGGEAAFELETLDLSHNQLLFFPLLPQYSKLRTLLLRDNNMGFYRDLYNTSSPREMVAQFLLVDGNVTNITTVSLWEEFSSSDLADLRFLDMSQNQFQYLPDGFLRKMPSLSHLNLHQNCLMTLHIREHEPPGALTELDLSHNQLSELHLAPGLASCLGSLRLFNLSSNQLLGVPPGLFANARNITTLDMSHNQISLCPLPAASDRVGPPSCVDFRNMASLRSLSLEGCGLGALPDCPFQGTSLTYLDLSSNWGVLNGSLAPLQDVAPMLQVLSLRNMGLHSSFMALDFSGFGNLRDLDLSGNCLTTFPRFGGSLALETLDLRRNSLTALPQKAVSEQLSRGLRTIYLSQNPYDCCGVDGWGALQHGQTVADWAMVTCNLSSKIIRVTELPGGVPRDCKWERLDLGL
T1 sequence (P01137 30-390 limits assumed, chain 2 of 2): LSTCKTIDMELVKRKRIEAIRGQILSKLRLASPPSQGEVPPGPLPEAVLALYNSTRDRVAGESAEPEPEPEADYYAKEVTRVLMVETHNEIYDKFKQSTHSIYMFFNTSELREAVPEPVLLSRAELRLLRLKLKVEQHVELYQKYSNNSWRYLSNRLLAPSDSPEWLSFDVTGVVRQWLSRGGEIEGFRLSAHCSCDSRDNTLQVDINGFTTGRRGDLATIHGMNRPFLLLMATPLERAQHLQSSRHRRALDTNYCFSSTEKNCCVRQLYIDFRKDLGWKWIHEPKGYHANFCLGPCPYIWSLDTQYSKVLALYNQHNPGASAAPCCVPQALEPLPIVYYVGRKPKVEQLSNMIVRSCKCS
T3 sequence (Q14392 18-627 limits assumed, chain 1 of 2): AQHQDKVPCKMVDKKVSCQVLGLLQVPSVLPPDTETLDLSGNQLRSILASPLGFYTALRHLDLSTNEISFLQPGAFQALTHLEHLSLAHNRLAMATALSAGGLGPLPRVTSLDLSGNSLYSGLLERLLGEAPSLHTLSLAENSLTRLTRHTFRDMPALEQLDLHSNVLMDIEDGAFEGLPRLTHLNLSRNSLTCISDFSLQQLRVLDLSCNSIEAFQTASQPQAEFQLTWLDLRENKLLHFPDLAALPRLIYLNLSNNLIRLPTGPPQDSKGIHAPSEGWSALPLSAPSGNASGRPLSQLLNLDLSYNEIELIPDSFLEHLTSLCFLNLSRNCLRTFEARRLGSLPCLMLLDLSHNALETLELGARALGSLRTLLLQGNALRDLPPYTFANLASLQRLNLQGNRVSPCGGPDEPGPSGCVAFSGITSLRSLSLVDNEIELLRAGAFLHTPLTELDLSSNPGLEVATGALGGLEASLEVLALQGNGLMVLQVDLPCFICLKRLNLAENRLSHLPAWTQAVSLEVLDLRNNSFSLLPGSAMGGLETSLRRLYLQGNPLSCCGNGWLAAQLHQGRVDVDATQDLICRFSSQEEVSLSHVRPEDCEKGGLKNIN
T3 sequence (P01137 30-390 limits assumed, chain 2 of 2): as the sequence (P01137 30-390 limits assumed, chain 2 of 2) above
T5 sequence (Q14766 347-1721 limits assumed, chain 1 of 2): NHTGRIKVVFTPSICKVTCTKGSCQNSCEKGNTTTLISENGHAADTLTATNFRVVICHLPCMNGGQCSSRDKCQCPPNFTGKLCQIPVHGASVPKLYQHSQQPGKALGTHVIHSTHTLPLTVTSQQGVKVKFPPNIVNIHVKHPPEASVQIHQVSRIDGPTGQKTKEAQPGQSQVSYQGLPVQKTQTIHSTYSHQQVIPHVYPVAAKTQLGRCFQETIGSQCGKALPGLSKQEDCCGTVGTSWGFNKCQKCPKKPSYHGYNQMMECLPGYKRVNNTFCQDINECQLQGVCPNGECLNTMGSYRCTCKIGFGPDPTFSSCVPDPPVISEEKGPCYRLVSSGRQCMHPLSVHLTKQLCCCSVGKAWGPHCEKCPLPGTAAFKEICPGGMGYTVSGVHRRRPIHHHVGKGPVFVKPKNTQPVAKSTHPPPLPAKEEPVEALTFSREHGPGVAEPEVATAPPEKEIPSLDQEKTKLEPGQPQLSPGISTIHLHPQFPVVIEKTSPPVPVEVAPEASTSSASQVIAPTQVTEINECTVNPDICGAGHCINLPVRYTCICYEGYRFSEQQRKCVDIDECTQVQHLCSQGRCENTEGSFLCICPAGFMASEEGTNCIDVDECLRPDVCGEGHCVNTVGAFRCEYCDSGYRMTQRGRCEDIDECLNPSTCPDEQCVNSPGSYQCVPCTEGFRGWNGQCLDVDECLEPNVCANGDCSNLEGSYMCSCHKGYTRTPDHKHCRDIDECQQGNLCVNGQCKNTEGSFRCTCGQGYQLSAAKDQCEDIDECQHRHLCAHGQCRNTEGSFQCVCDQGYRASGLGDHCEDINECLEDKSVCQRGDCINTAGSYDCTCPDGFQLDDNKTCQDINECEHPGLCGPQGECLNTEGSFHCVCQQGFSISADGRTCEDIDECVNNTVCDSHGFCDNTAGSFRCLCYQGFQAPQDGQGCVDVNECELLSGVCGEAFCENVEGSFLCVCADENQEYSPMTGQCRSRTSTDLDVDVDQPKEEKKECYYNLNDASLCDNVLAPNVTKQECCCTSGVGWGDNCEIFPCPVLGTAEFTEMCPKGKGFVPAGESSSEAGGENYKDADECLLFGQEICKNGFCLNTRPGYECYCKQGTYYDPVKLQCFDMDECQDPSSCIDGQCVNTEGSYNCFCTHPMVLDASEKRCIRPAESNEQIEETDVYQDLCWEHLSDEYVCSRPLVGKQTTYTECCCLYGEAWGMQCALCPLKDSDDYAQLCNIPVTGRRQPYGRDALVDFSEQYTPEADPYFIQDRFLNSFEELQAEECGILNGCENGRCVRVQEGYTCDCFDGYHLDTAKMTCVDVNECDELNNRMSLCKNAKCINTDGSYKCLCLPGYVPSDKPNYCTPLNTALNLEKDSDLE
T5 sequence (P01137 30-390 limits assumed, chain 2 of 2): as the sequence (P01137 30-390 limits assumed, chain 2 of 2) above
T6 sequence (Q9NS15 44-1303 limits assumed, chain 1 of 2): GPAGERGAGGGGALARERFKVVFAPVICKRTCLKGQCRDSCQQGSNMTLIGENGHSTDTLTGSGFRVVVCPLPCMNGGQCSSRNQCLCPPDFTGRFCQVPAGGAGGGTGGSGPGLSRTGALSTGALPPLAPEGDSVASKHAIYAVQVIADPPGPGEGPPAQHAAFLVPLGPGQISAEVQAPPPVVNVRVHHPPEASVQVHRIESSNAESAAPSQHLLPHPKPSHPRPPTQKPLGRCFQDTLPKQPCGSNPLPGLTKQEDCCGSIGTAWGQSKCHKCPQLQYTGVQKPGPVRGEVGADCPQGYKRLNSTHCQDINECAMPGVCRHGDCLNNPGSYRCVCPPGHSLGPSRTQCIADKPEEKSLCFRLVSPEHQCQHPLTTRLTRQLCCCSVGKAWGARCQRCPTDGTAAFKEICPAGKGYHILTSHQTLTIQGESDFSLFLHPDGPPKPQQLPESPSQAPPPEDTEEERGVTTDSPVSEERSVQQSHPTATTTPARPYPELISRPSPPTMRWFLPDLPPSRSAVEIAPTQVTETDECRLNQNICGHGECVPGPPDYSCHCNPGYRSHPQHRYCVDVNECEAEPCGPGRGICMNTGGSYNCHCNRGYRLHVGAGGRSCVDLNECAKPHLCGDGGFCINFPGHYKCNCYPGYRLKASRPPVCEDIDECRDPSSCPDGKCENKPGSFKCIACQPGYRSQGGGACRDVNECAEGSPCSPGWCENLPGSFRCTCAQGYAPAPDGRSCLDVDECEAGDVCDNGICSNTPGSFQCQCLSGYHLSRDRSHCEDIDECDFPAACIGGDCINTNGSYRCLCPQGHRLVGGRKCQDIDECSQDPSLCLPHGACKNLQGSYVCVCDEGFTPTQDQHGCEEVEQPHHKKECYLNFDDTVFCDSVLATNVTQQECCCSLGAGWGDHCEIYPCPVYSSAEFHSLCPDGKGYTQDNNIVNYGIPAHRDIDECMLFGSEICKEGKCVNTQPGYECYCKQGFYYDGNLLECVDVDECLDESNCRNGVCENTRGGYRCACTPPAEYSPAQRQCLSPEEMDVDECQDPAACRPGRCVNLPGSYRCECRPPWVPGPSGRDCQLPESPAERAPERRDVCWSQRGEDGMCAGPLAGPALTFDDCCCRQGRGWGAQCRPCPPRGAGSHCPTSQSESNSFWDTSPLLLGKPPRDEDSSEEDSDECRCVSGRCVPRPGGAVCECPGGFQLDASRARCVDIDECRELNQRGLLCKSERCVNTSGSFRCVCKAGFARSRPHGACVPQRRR
T6 sequence (P01137 30-390 limits assumed, chain 2 of 2): as the sequence (P01137 30-390 limits assumed, chain 2 of 2) above
Sequence of endogenous LTBP-proTGFβ1 of human LN229 cells (P01137 30-390): as the sequence (P01137 30-390 limits assumed, chain 2 of 2) above

Kd [1]: 0.0841 nM | koff [1]: 0.000128 s⁻¹ | kon [1]: 1.52e+06 M⁻¹ s⁻¹ | Kd [2]: 0.0892 nM | koff [2]: 0.000112 s⁻¹ | kon [2]: 1.26e+06 M⁻¹ s⁻¹ | fAb IC50 [3]: 0.723 nM | Fold difference [4]: 53 fold | Fold difference [5]: 69 fold | Fold difference [6]: 118 fold | Fold difference [7]: 95 fold | koff [8]: 4.98e-05 s⁻¹ | kon [8]: 703000 M⁻¹ s⁻¹ | koff [9]: 0.000438 s⁻¹ | kon [9]: 619000 M⁻¹ s⁻¹ | koff [10]: 0.00029 s⁻¹ | kon [10]: 703000 M⁻¹ s⁻¹ | Kd [11]: 0.035 nM | koff [11]: 8.52e-05 s⁻¹ | kon [11]: 2.44e+06 M⁻¹ s⁻¹ | Kd [12]: 0.109 nM | koff [12]: 0.000195 s⁻¹ | kon [12]: 1.78e+06 M⁻¹ s⁻¹ | Kd [13]: 0.19 nM | koff [13]: 0.000359 s⁻¹ | kon [13]: 1.89e+06 M⁻¹ s⁻¹ | Kd [14]: 0.119 nM | koff [14]: 0.000162 s⁻¹ | kon [14]: 1.36e+06 M⁻¹ s⁻¹
B1: Ab46 Fab (Fab, V domains shown)
VH: EVQLLESGGGLVQPGGSLRLSCAASGFTFADYAMTWVRQAPGKGLEWVSAISGSGAATYFADSVKGRFTISRDNSKNTLYLQMNSLRAEDTAVYYCARVSSGHWDYDYWGQGTLVTVSS
VL: DIQLTQSPSSLSASVGDRVTITCRASQSISSYLNWYQQKPGKAPKLLIYAASGLESGVPSRFSGSGSGTDFTLTISSLQPEDFATYYCQQTYGVPLTFGGGTKVEIK
notes: Fab fragment
